The source of these data is US20200148774A1 (Genentech, published 2020).

By Kd is commonly meant the concentration at which binding is half-saturated. The term koff denotes a measure of how fast the partners let go of each other. By kon is commonly meant a measure of how fast the partners come together.

The target in assay [1] is T1, recombinant human CLL-1 extracellular domain (ECD, amino acids 65-265) fused to an N-terminal Flag (human, UniProt Q5QGZ9 65-265).
T1 construct: The construct and the K244Q SNP are stated for the immunogen; they are not written as a piece; also called huCLL-1-Flag; huCLL-1
T1 chain: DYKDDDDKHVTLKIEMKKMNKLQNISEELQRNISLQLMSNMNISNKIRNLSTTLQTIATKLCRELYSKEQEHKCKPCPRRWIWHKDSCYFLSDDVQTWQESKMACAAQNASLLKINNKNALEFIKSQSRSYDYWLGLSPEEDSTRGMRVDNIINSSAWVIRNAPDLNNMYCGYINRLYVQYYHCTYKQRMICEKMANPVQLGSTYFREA
Description: SPR (Biacore), chimeric IgG captured by anti-human IgG, CLL-1 as analyte. The protocol: (§1) The chimeric anti-CLL-1 human IgG were captured by mouse anti-human IgG coated on the CM5 sensor chip. […] Association rates (kon) and dissociation rates (koff) were calculated using a simple one-to-one Langmuir binding model. The equilibrium dissociation constant (KD) was calculated as the ratio koff/kon.
(In general: SPR reads the build-up and loss of mass on a sensor chip optically.)

In assay [2] the target is T2, recombinant cynomolgus CLL-1 extracellular domain (ECD, amino acids 65-265) fused to an N-terminal Flag (cynomolgus monkey).
T2 construct: Construct stated for the immunogen; also called CynoCLL-1 Flag; cynoCLL-1
T2 chain: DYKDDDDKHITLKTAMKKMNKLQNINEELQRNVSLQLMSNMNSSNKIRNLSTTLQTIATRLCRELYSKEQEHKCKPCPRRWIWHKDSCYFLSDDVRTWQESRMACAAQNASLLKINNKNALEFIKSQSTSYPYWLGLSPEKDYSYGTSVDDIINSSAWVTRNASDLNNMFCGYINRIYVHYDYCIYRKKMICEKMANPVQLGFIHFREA
The assay is described as above. The protocol: as §1

Assay [3] concerns the target T3, cynomolgus CLL-1 on cells (recombinant on HEK293AD cells) (cynomolgus monkey).
T3 construct: also called 293AD/cynoCLL-1; 293AD/cynoCLL1
T3 chain: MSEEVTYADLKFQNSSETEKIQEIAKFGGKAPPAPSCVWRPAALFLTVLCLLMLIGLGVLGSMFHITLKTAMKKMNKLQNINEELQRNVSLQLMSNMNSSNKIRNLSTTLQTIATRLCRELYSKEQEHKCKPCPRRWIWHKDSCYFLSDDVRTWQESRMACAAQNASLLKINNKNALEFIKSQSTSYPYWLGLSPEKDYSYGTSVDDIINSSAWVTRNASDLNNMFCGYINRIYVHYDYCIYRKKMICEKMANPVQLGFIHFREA
Put plainly: Scatchard (125I-antibody competition), 293AD/cynoCLL-1 cells. How it is done:
(§2) Anti-CLL-1 antibodies were [I¹²⁵] labeled using the indirect lodogen method. […] Competition assay mixtures of 50 μL volume containing a fixed concentration of [1¹²⁵] labeled antibody and decreasing concentrations of serially diluted, unlabeled antibody were placed into 96-well plates. HEK293AD cells stably expressing recombinant hu or cynoCLL-1 or HL-60 tumor cells expressing endogenous CLL-1 were cultured in growth media at 37° C. in 5% CO₂. Cells were detached from the flask using Sigma Cell Dissociation Solution and were washed with binding buffer, which consisted of Dulbecco's Modified Eagle Medium (DMEM) with 1% bovine serum albumin (BSA), […] and 0.1% sodium azide. The washed cells were added to the 96 well plates at a density of 100,000 cells in 0.2 mL of binding buffer. […] The final concentration of the unlabeled antibody in the competition assay ranged from 1000 nM through ten 2-fold dilution steps to a 0 nM buffer-only assay. Competition assays were carried out in triplicate. Competition assays were incubated for 2 hours at room temperature. […] The filters were counted on a Wallac Wizard 1470 gamma counter (PerkinElmer Life and Analytical Sciences Inc.; Wellesley, Mass.). The binding data was evaluated using NewLigand software (Genentech), which uses the fitting algorithm of Munson and Robard to determine the binding affinity of the antibody (Munson and Robard 1980).

Assay [4] deals with T4, human CLL-1 on cells (endogenous on HL-60, EOL-1 and other AML cell lines and CD14+ monocytes); recombinant on … (human, UniProt Q5QGZ9 1-265).
T4 construct: also called 293AD/huCLL-1; tumor-derived CLL-1
T4 sequence: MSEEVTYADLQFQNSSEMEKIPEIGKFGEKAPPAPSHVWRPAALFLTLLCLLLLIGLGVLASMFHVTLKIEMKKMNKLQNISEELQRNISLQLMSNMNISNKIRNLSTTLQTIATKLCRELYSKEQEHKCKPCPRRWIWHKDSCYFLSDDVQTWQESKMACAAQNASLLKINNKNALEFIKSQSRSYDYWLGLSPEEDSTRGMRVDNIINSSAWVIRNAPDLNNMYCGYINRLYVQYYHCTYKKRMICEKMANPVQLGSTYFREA
Description: Scatchard (125I-antibody competition), HL-60 cells. The protocol:
as §2

Assay [5] deals with T1, recombinant human CLL-1 extracellular …. Put plainly: SPR (Biacore T200), IgG captured by anti-human Fc, human CLL-1 as analyte. How it is done: The binding affinity of the antibodies in this section was determined by BIAcore™ T200 Format. Briefly, BIAcore™ research grade CM5 chips were activated with 1-ethyl-3-(3-dimethylaminopropyl) carbodiimide (EDC) and N-hydroxysuccinimide (NHS) reagents according to the supplier's instructions. Goat anti-human Fc IgGs were coupled to the chips to achieve approximately 10,000 response units (RU) in each flow cell. Unreacted coupling groups were blocked with 1M ethanolamine. For kinetics measurements, antibodies were captured to achieve approximately 300 RU. Three-fold serial dilutions of human CLL-1 was injected in HBS-P buffer (0.01M HEPES pH7.4, 0.15M NaCl, 0.005% surfactant P20) at 25° C. with a flow rate of 30 μl/min. Association rates (kon) and dissociation rates (koff) were calculated using a 1:1 Langmuir binding model (BIAcore™ T200 Evaluation Software version 2.0). The equilibrium dissociation constant (Kd) was calculated as the ratio koff/kon.

Assay [6] concerns the target T4, human CLL-1 on cells (endogenous on …). Put plainly: Scatchard (125I-antibody competition), 293AD/huCLL-1 cells. How it is done:
as §2

Assay [7] deals with T5, hCD3ε (human, UniProt P07766 23-126).
T5 construct: Also used for the value printed only as 'hCD3 (0.05 nM'); also called human CD3ε polypeptide
T5 sequence (P07766 23-126): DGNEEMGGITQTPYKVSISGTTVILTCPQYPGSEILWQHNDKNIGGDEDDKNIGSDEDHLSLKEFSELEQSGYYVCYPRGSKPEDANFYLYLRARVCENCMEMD
Description: SPR (Biacore); target printed only as hCD3; format not stated, not the Fab measurement.

The target in assay [8] is T5, hCD3ε. Put plainly: SPR (Biacore), Fab; Fab.
Assay [9] has as its target T5, hCD3ε. Put plainly: SPR (Biacore), Fab.
For a further assay, the target named is T6, cynoCD3εγ (cynomolgus monkey, UniProt Q95LI5 22-117; Q95LI7 23-113).
T6 construct: also called cynomolgus CD3εγ
T6 sequence (looked up) 1: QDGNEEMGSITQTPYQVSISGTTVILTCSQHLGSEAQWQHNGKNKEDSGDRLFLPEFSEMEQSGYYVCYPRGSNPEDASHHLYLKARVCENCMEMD
T6 sequence (looked up) 2: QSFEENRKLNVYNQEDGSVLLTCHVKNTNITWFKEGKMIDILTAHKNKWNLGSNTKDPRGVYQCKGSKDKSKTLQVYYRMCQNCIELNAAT
Put plainly: SPR (Biacore).

Another assay concerns the target T7, hCD3εγ (human, UniProt P07766 23-126; P09693 23-116).
T7 construct: also called human CD3εγ
Put plainly: SPR (Biacore).

The target in assay [10] is T3, cynomolgus CLL-1 on cells (recombinant …). Description: FACS, stable cell line expressing recombinant cyno CLL-1. A general note: In flow cytometry, cells or beads pass a laser one at a time.
In assay [11] the target is T4, human CLL-1 on cells (endogenous on …). Put plainly: FACS, stable cell line expressing recombinant hu CLL-1 and AML tumor cell lines.

Residue numbers refer to the chain shown, from its start.

T7 sequence (P07766 23-126, chain 1 of 2): as the sequence (P07766 23-126) above
T7 sequence (P09693 23-116, chain 2 of 2): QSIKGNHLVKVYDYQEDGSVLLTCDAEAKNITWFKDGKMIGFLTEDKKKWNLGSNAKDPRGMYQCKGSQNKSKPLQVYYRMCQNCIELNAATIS

B1: ch21C9 (antibody, V domains shown)
VH: EVQLQQSGPELVKPGASVKMSCKASGYTFTDYYLDWVKQSHGESFEWIGRVNPYNGGTIYNQKFKGKATLTVDKSSSTAYMDLNSLTSEDSAVYYCARDHYRYDPLLDYWGQGTTLTVSS
VL: DIQMTQSHKFMSTSVGDRVSITCKASQDVSTAVAWFQQKPGQSPKLLIYSPSYRYTGVPDRFTGSGSGTDFTFTISSVQAEDLAVYYCQQLYSTPYTFGGGTKLEIK
notes: chimeric version of m21C9, human IgG; also called chimeric 21C9; Chimeric 21C9
With B1, the dissociation constant (Kd) stood at 9700 pM in assay [1]; 7100 pM in [2]; 1200 pM in assay [3]; 450 pM in assay [4]; 8620 pM in assay [5]; 590 pM in [6]. Also, the koff in [1] came out at 0.0024 s⁻¹; in [2] it was 0.0012 s⁻¹. Besides, the kon stood at 250000 M⁻¹ s⁻¹ in assay [1] and 160000 M⁻¹ s⁻¹ in assay [2].

B2: ch6E7 (antibody, V domains shown)
VH: QVQLQQSGPELVKPGASVKISCKASGYSFTDYYMHWVKQSHIKSLEWIGRINPYNGAAFYSQNFKDKASLTVDKSSSTAYMELHSLTSEDSAVYYCAIERGADLEGYAMDYWGQGTSVTVSS
VL: DIVLTQSPSSLIVSLGQRATISCRASQSVSTSSYNYMHWYQQKPGQPPKLLLKYASNLESGVPARFSGSGSGTDFTLNIHPVEEEDTATYYCQHSWEIPLTFGAGTKLEIK
notes: chimeric version of m6E7, human IgG; also called chimeric 6E7; Chimeric 6E7
On to B2, for which the equilibrium dissociation constant (Kd) in [1] was determined as 900 pM; in [2] it was 1100 pM; in assay [3], 1000 pM; in [4], 650 pM; in [5], 959 pM; in [6], 800 pM. For the same molecule, the off-rate constant (koff) in [1] was found to be 0.00044 s⁻¹; in assay [2], 0.00046 s⁻¹. In addition, the kon in assay [1] is 460000 M⁻¹ s⁻¹; in [2] it was 400000 M⁻¹ s⁻¹.

B3: 38E4v11 (antibody, V domains shown)
VH: EVQLVQSGAEVKKPGASVKVSCKASGFTFTSYYIHWVRQAPGQGLEWIGWIYPENDNTKYNEKFKDRVTITADTSTSTAYLELSSLRSEDTAVYYCARDGYSRYYFDYWGQGTLVTVSS
VL: DIVMTQSPDSLAVSLGERATINCKSSQSLLNSRTRKNYLAWYQQKPGQSPKLLIYWTSTRKSGVPDRFSGSGSGTDFTLTISSLQAEDVAVYYCTQSFILRTFGQGTKVEIK
notes: also called h38E4v11
In turn, B3 returned a Kd in the assay with hCD3ε [7] of 50 pM.

B4: 38E4v11 Fab (Fab, V domains shown)
VH: B3 VH
VL: B3 VL
notes: Fab; also called 38E4v11 (Fab Biacore measurements)
Turning to B4, the kon with hCD3ε [8] was found to be 5e+07 M⁻¹ s⁻¹. In the assay with hCD3ε [9], this molecule registered a Kd of 32 pM and a koff of 0.0016 s⁻¹.

B5: 40G5c (antibody, V domains shown)
VH: B3 VH with F27Y, S31N, E54G, N55D, D56G, D66G, V68A, I70L, G100S, R103N
VL: B3 VL with S49P, T57A, K61E
notes: also called h40G5c
Take B5: the figures for the Kd with cynoCD3εγ and with hCD3εγ were 14000 pM and 12000 pM, respectively.

B6: 38E4v1 (antibody, V domains shown)
VH: B3 VH
VL: B3 VL with T95K
notes: also called h38E4v1
Regarding B6, the Kd worked out at 700 pM with cynoCD3εγ and 500 pM with hCD3εγ.

B7: m28H12 (antibody, V domains shown)
VH: QVQLQQSGAELVKPGASVKLSCTASGFNIKDTYMHWVKQRPEQGLEWIGRIDPANGDTDYDPKFQGKATVTADTSSNTAYLQLSSLTSEDTAVYYCTISGPPYYVMDYWGQGTSVTVSS
VL: DIQMTQSPASLAVSLGQRATISCRASQSVSSSSYSYMHWYQQKPGQPPKLLIKYASNLESGVPARFSGRGSGTDFTLNIHPVEEEDTATYYCQHSWEIPYTFGGGTRLEIK
notes: murine monoclonal antibody; also called murine 28H12
For the molecule B7, the binding result in assay [10] and in [11] was “binds” each time.

B8: m20B1 (antibody, V domains shown)
VH: EVQLQQSGPELVKPGALVKISCKASGYTFTSYDINWLKQRPGQGLEWIGWIYPGDGTTEYNERFKGKATLTADKSSSTAYLQLSSLTSENSAVYFCARSYDYDYAMDYWGQGTSVTVSS
VL: DIVLTQSPAIMSASPGEKVTMTCSASSSISYMYWYQQKPGTSPKRWIYDTSKLASGVPARFSGSGSGTSYSLTISSMEAEDAATYYCHQRSSWTFGGGTKLEIK
notes: murine monoclonal antibody; also called murine 20B1
On to B8, for which the binding result in assay [10] and in [11] was “binds” in each case.
